# Test results published in article PMC4671958, “Structure of the Helicase Domain of DNA Polymerase Theta Reveals a Possible Role in the Microhomology-Mediated End-Joining Pathway” (Structure(London, England:1993), 2015).
# “And” between values parts separate entries of the source, which are not always exact repeats. Equal values may be shown once.
# Assays:
# [1] = target: the molecule itself; test: AUC; sedimentation velocity, absorbance (280 nm) and interference optics; in the absence of nucleotide
# [2] = target: the molecule itself; test: SEC-MALS; Viscotek TDA 305 system, Shodex KW-803 silica column; in the absence of nucleotide
protein,measurement,setting,value
"DNA polymerase theta helicase domain (Polθ-HLD), residues 67–894 (domain or fragment, human, UniProt O75417 67-894, looked up, DNA polymerase theta (Polθ, POLQ gene), human, helicase domain, residues 67–894; printed monomer mass 93,080 Da; Tetramer in crystals (by crystallographic symmetry) and in solution; Further construct details may stand in the Supplemental Experimental Procedures; also called Polθ helicase domain; 67–894 construct) DKLLLANWGLPKAVLEKYHSFGVKKMFEWQAECLLLGQVLEGKNLVYSAPTSAGKTLVAELLILKRVLEMRKKALFILPFVSVAKEKKYYLQSLFQEVGIKVDGYMGSTSPSRHFSSLDIAVCTIERANGLINRLIEENKMDLLGMVVVDELHMLGDSHRGYLLELLLTKICYITRKSASCQADLASSLSNAVQIVGMSATLPNLELVASWLNAELYHTDFRPVPLLESVKVGNSIYDSSMKLVREFEPMLQVKGDEDHVVSLCYETICDNHSVLLFCPSKKWCEKLADIIAREFYNLHHQAEGLVKPSECPPVILEQKELLEVMDQLRRLPSGLDSVLQKTVPWGVAFHHAGLTFEERDIIEGAFRQGLIRVLAATSTLSSGVNLPARRVIIRTPIFGGRPLDILTYKQMVGRAGRKGVDTVGESILICKNSEKSKGIALLQGSLKPVRSCLQRREGEEVTGSMIRAILEIIVGGVASTSQDMHTYAACTFLAASMKEGKQGIQRNQESVQLGAIEACVMWLLENEFIQSTEASDGTEGKVYHPTHLGSATLSSSLSPADTLDIFADLQRAMKGFVLENDLHILYLVTPMFEDWTTIDWYRFFCLWEKLPTSMKRVAELVGVEEGFLARCVKGKVVARTERQHRQMAIHKRFFTSLVLLDLISEVPLREINQKYGCNRGQIQSLQQSAAVYAGMITVFSNRLGWHNMELLLSQFQKRLTFGIQRELCDLVRVSLLNAQRARVLYASGFHTVADLARANIVEVEVILKNAVPFKSARKAVDEEEEAVEERRNMRTIWVTGRKGLTEREAAALIVEEARMILQQDLVEM",stoichiometry N,[1],4 and 3.2
same,stoichiometry N,[2],~4
